Source: patent publication US20180282409A1 (Hoffmann-La Roche, published 2018)
Positions count from the first letter of the chain named. Names and notes keep the numbering of the source. Values belong to the binder of their own block, whether it stands above or below them.

Legend:
[1] = biological target: T1, extracellular domain of recombinant human CD19 receptor (human, UniProt P15391 20-291); assay: SPR (BIAcore), half-life of the complex
T1 construct: extracellular domain; also called recombinant human CD19 ECD
T1 sequence (looked up): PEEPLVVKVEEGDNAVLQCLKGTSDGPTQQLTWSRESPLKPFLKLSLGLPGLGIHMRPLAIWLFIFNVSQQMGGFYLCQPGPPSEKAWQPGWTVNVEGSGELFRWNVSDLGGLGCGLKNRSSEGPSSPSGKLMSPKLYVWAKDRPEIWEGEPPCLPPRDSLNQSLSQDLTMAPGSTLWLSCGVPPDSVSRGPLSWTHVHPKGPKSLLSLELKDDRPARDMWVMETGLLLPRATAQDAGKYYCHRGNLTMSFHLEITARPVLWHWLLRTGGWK

[2] = biological target: T2, cynomolgus monkey CD19 extracellular domain (ECD) fused to the human PSCA GPI anchor sequence, on transfected … (cynomolgus monkey; human); assay: flow cytometry on HEK293 cells presenting cynomolgus CD19 ECD by GPI anchor
T2 construct: Presented on the surface of transiently transfected HEK293 cells; its processing in the cell is not described; also called cynomolgus CD19-ECD; cyCD19 ECD
T2 chain: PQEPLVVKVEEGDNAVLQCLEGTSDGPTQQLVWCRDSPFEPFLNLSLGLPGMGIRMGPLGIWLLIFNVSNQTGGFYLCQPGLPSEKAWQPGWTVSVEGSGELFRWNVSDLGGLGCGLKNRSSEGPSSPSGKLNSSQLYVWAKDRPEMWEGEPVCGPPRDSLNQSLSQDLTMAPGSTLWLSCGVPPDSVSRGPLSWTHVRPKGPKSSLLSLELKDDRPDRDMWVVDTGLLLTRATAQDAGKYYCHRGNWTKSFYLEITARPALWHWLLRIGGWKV
Procedure: HEK293 cells were transfected with 1 μg of plasmid DNA per 1.5×10⁶ cells using LipofectAmine 2000 and incubated thereafter for 48 hours at 37° C. […] GWKV; SEQ ID NO: 31) extracellular domain (ECD) fused to the human PSCA GPI anchor sequence ([…] WGPGQL; SEQ ID NO: 32) for extracellular presentation. […] The starting concentration of the antibodies was set to 60 μg/mL (2× final concentration) and then diluted in a 1:3 (v/v) titration series. The primary antibody was incubated on the cells for one hour at room temperature, followed by two wash steps. For secondary detection, anti-huIgG (H+L) antibody conjugated to Alexa488 in a concentration of 30 μg/mL was used.

t1/2 [1]: 43.6 min
B1: humanized anti-human CD19 antibody var.5:S27eP (antibody, V domains shown)
VH: QVQLVQSGAEVKKPGASVKVSCKASGYTFTDYIMHWVRQAPGQGLEWMGYINPYNDGSKYTEKFQGRVTMTSDTSISTAYMELSRLRSDDTAVYYCARGTYYYGSALFDYWGQGTTVTVSS
VL: DIVMTQTPLSLSVTPGQPASISCKSSQSLENPNGNTYLNWYLQKPGQSPQLLIYRVSKRFSGVPDRFSGSGSGTDFTLKISRVEAEDVGVYYCLQLTHVPYTFGQGTKLEIK
notes: also called variant 5 (S27eP); variant 5

t1/2 [1]: 4 min
B2: humanized anti-human CD19 antibody var.9:S27eP/N28S (antibody, V domains shown)
VH: B1 VH
VL: B1 VL with N33S
notes: also called variant 9 (S27eP/N28S); variant 9

EC50 [2]: 0.313 µg/mL
B3: wild-type humanized anti-human CD19 antibody (var.0: wt) (antibody, V domains shown)
VH: EVQLQQSGPELVKPGASVKMACKASGYTFTDYIMHWVKQKTGQGLEWIGYINPYNDGSKYTEKFNGKATLTSDKSSITAYMELSSLTSEDSAVYYCARGTYYYGSALFDYWGQGTTLTVSS
VL: DAVMTQTPLSLPVSLGDQASISCRSSQSLENSNGNTYLNWYLQKPGQSPQLLIYRVSKRFSGVLDRFSGSGSGTDFTLKISRVEAEDLGVYFCLQLTHVPYTFGGGTKLEIK
notes: it was detected with anti-human IgG and captured with anti-human Fab; also called variant 0: wt; humanized wild-type antibody
